Reference: article PMC3313952, “Multicopper Oxidase-3 Is a Laccase Associated with the Peritrophic Matrix of Anopheles gambiae” (PLoS ONE, 2012)

What was measured:
Assay in all cases: spectrophotometric product formation, Michaelis-Menten fit
Format in all cases: biochemical, Anopheles gambiae
[1] = substrate: CC(=O)NCCc1ccc(O)c(O)c1; settings: pH 7.5, 0.1 M sodium phosphate; pH 7.5
Excerpt: (§1) spectrophotometric product formation, Michaelis-Menten fit on AgMCO3

[2] = substrate: CCn1c(=NN=c2sc3cc(S(=O)(=O)O)ccc3n2CC)sc2cc(S(=O)(=O)O)ccc21; settings: pH 6.0, 0.1 M Mes; pH 6.0
Excerpt: as §1

[3] = substrate: NCCC(=O)NCCc1ccc(O)c(O)c1; settings: pH 7.0, 0.1 M sodium phosphate; pH 7.0
Excerpt: as §1

[4] = substrate: NCCc1ccc(O)c(O)c1; settings: pH 7.5, 0.1 M sodium phosphate; pH 7.5
Excerpt: as §1

[5] = substrate: N[C@@H](Cc1ccc(O)c(O)c1)C(=O)O; settings: pH 7.5, 0.1 M sodium phosphate; pH 7.5
Excerpt: as §1

[6] = substrate: Oc1ccc(O)cc1; settings: pH 6.5, 0.1 M Mes; pH 6.5
Excerpt: as §1

[7] = substrate: Oc1ccccc1O; settings: pH 7.0, 0.1 M sodium phosphate; pH 7.0
Excerpt: as §1

B1: AgMCO3 (Anopheles gambiae) (protein)
chain: QSWLNTLLEQSNGTLDVSTFPGEQCLRECDNTQPRICHFSWTMEHYHVMGPACRDCAKGNHTDCYHPACITADGVERGVMSLNRKIPGPTISVCRHDLIVVDITNAMAGTSAAIHWHGLHQRATPYMDGVPFITQCPIGFGNTFRYAFLATEPGTQFYHSHSGHHKVNGHYGALIVREPKRVDPNGDLYHYDTPAHVILGSDWMHIDGEMFMPGLPSAGGIMPINLLINGKGTYHDPKKNETTQTPLEVYTVRRGARFRFRFINAASHVCPLQLQIEDHMMEVIASDSFHLQPRKVDTLVSTSGERYDFVLEANGVKDTYWVRLRSLGPCADLQLEQFAVLRYTTGPFINDAFPTGAPPTYEEPFRNVATANHPNATCGRPEFGDYCITDFQAYDTDEDVINGVPDHQLTFGFYNYPVSFESMFESNRYEHYMNIYGSVMMQGAINNISLAYPPFSLLTQPEKIRDDTFCDEDNRPDSCSDRQLCTCTHRVKINLGDIVELYILDLTPSVNDLNHPFHLHGYQMFVMEMSQDRRVPITLEIAQNIARQRLLSRNTVALPPRKDTVSIPSRGYARVRFRADNPGFWLMHCHYEWHTAVGMALVLQVGETSEMVKAPADFPKCDSYTPAVGHLLQGSL
notes: no tag mentioned; baculovirus / Sf9 host; cDNA identical to EF592176.2 except Leu instead of Pro at residue 15 in signal peptide (probable GenBank error)
Km [1]: 1000 µM | kcat [1]: 2.58 s⁻¹ | kcat/Km [1]: 2580 M⁻¹ s⁻¹ | Km [2]: 8500 µM | kcat [2]: 2.6 s⁻¹ | kcat/Km [2]: 300 M⁻¹ s⁻¹ | Km [3]: 2200 µM | kcat [3]: 11.8 s⁻¹ | kcat/Km [3]: 5380 M⁻¹ s⁻¹ | Km [4]: 1600 µM | kcat [4]: 4.57 s⁻¹ | kcat/Km [4]: 2850 M⁻¹ s⁻¹ | Km [5]: 1400 µM | kcat [5]: 1.55 s⁻¹ | kcat/Km [5]: 1100 M⁻¹ s⁻¹ | Km [6]: 5200 µM | kcat [6]: 26.2 s⁻¹ | kcat/Km [6]: 5030 M⁻¹ s⁻¹ | Km [7]: 2100 µM | kcat [7]: 5.1 s⁻¹ | kcat/Km [7]: 2430 M⁻¹ s⁻¹
